According to US20170226192A1:

How the values were obtained:
[1] = target: Ravn pin peptide … (Marburg virus, strain Ravn); experiment: pin peptide ELISA, pin D4
[2] = target: Ravn pin peptide […] (Marburg virus, strain Ravn); experiment: pin peptide ELISA, pin D6; overflow value is greater than 3.9
[3] = target: Ravn pin peptide … (Marburg virus, strain Ravn); experiment: pin peptide ELISA, pin D5; overflow value is greater than 3.9
[4] = target: Ravn pin peptide … (Marburg virus, strain Ravn); experiment: pin peptide ELISA, pin D4; overflow value is greater than 3.9
[5] = target: Ravn pin peptide … (Marburg virus, strain Ravn); experiment: pin peptide ELISA, pin D5
[6] = target: Ravn pin peptide … (Marburg virus, strain Ravn); experiment: pin peptide ELISA, pin D6
[7] = target: Ravn pin peptide … (Marburg virus, strain Ravn); experiment: pin peptide ELISA, pin printed as D5
[8] = target: Ravn pin peptide … (Marburg virus, strain Ravn); experiment: pin peptide ELISA, pin printed as D6

B1: CAN30G5 (antibody, V domains shown)
VH: EVQLVESGGGLVQPKGSLKLSCAASGFAFNSYAMHWVCQAPGKGLEWVARIRIKSGNYATSYAGSVTDRFTVSRDDSQNLFYLQMNNLKTEDTAMYYCVREWEGAMDYWGQGTSVTVSS
VL: DIVLTQSPLSLPVSLGDQASISCRSSQSLVHSNGNTYLHWYLQKPGQSPNLLIYKVSNRFSGVPDRFSGSGSGTDFTLKISRVEAEDLGVYFCSQSTHVPWTFGGGTKLEIK
[1]
  Absorbance (1 hour): 0.631
[2]
  Absorbance (1 hour): > 3.9
[3]
  Absorbance (1 hour): > 3.9

B2: CAN30G4 (antibody, V domains shown)
VH: EVKLVESGGGLVKSGGSLKLSCAVSGFTFSTYAMSWVRQIPEKRLEWVATISNGGSYIYYSDSVKGRFTISRDNAKNTLYLQMSSLRSEDTAMYYCARHRESYRYDWFAYWGQGTLVTVSA
VL: DVLMTQTPLSLPVSLGDQASISCRSSQNIVHSDGNTYLEWYLQKPGQSPKLLIYKFSNRFSGVPDRFSGSGSGTDFTLKISRVEAEDLGVYYCFQGSHVPPTFGAGTKLELK
[4]
  Absorbance (1 hour): > 3.9
[5]
  Absorbance (1 hour): 1.97

B3: CAN30G3 (antibody, V domains shown)
VH: QVQLKESGPGLVAPSQSLSITCTVSGFSLTDYGITWIRQPPGKGLEWLGVIWGGGSAYYNLVLKSRLSISKDNSKSQVFLKMNSLQTDDTAMYYCAKHRTLITTAMDYWGQGISVTVSS
VL: DVLMTQTPLSLPVSLGDQASISCRSSQNIVHSNGNTYLEWYLQKSGQSPKLLIYKVSNRFSGVPDRFSGSGSGTDFTLKISRVEAEDLGVYYCFQGSHFPWTFGGGTKLEIK
[6]
  Absorbance (1 hour): 1.12
[5]
  Absorbance (1 hour): 1.84

B4: CAN54G2 (antibody, V domains shown)
VH: QVQLQQSGTELVRPGTSVKISCKASGYDFTNFWLGWIKQRPGHGLEWIGDIYPGGDNTYYNEKFKGKVTLTADKSSNTAYMQFSSLTSEDSAVYFCFMILYTLDYWGQGTSVTVSS
VL: not shown
[7]
  Absorbance (1 hour): 2.76
[8]
  Absorbance (1 hour): 1.85
